Patent US20110123532A1 (ONCOMED PHARMACEUTICALS, published 2011)

T1: mouse VEGF (mouse, UniProt Q00731-2 27-190, limits assumed)
T1 construct: also called mVEGF
T1 sequence (looked up): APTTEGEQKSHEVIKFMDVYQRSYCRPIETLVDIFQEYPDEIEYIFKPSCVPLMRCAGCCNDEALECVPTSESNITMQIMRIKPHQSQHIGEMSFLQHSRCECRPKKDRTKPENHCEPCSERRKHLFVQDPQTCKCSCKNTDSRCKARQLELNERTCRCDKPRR

B1: 219R0202-21M18 single gene bispecific antibody (SGBSP) (bispecific antibody, human IgG2, kappa)
chain 1: DIQLTQSPSSLSASVGDRVTITCRASQGINNHLAWYQQKPGKVPKSLIYAASNLHSGVPSKFSGSGSGTHFTLIISSLQPEDIATYYCQQYDNLPLTFGGGTKVEIKRTVAAPSVFIFPPSDEQLKSGTASVVCLLNNFYPREAKVQWKVDNALQSGNSQESVTEQDSKDSTYSLSSTLTLSKADYEKHKVYACEVTHQGLSSPVTKSFNRGECGGGGGSGGGGSGGGGSGGGGSGGGGSGGGGSQVQLKQSGAELVKPGASVKLSCKASGYTFTNYWMHWVKLRPGQGFEWIGDINPSNGGTSYNEKFKRKATLTVDKSSSTAYMQLSSLTSEDSAVYYCTIHYYDNSYAMDYWGQGTSVTVSSASTKGPSVFPLAPCSRSTSESTAALGCLVKDYFPEPVTVSWNSGALTSGVHTFPAVLQSSGLYSLSSVVTVPSSNFGTQTYTCNVDHKPSNTKVDKTVERKCCVECPPCPAPPVAGPSVFLFPPKPKDTLMISRTPEVTCVVVDVSHEDPEVQFNWYVDGVEVHNAKTKPREEQFNSTFRVVSVLTVVHQDWLNGKEYKCKVSNKGLPAPIEKTISKTKGQPREPQVYTLPPSREKMTKNQVSLTCLVKGFYPSDIAVEWESNGQPENNYKTTPPMLKSDGSFFLYSKLTVDKSRWQQGNVFSCSVMHEALHNHYTQKSLSLSPGK
chain 2: DIVMTQSPDSLAVSLGERATISCRASESVDNYGISFMKWFQQKPGQPPKLLIYAASNQGSGVPDRFSGSGSGTDFTLTISSLQAEDVAVYYCQQSKEVPWTFGGGTKVEIKRTVAAPSVFIFPPSDEQLKSGTASVVCLLNNFYPREAKVQWKVDNALQSGNSQESVTEQDSKDSTYSLSSTLTLSKADYEKHKVYACEVTHQGLSSPVTKSFNRGECGGGGSGGGGSGGGGSGGGGSGGGGSGGGGSQVQLVQSGAEVKKPGASVKISCKASGYSFTAYYIHWVKQAPGQGLEWIGYISSYNGATNYNQKFKGRVTFTTDTSTSTAYMELRSLRSDDTAVYYCARDYDYDVGMDYWGQGTLVTVSSASTKGPSVFPLAPCSRSTSESTAALGCLVKDYFPEPVTVSWNSGALTSGVHTFPAVLQSSGLYSLSSVVTVPSSNFGTQTYTCNVDHKPSNTKVDKTVERKCCVECPPCPAPPVAGPSVFLFPPKPKDTLMISRTPEVTCVVVDVSHEDPEVQFNWYVDGVEVHNAKTKPREEQFNSTFRVVSVLTVVHQDWLNGKEYKCKVSNKGLPAPIEKTISKTKGQPREPQVYTLPPSREEMTKNQVSLTCLVEGFYPSDIAVEWESNGQPENNYKTTPPMLDSDGSFFLYSELTVDKSRWQQGNVFSCSVMHEALHNHYTQKSLSLSPGK
notes: Heterodimer of two single-gene chains, anti-VEGF arm (13A) and anti-DLL4 arm (13B), IgG2; also called 219R0202_21M18 SGBSP; 219R0202-21M18 SGBSP
B2: 219R0302-21M18 single gene bispecific antibody (SGBSP) (bispecific antibody, human IgG2, kappa)
chain 1: not shown
chain 2: B1 chain 2
notes: Heterodimer of two single-gene chains, anti-VEGF arm (13A) and anti-DLL4 arm (13B), IgG2; also called 219R0302_21M18 SGBSP; 219R0302-21M18 SGBSP
B3: 219R0202-21M18 monovalent bispecific antibody (MBSP) with common 21M18 light chain (bispecific antibody, human IgG2, kappa)
heavy 1: QVQLKQSGAELVKPGASVKLSCKASGYTFTNYWMHWVKLRPGQGFEWIGDINPSNGGTSYNEKFKRKATLTVDKSSSTAYMQLSSLTSEDSAVYYCTIHYYDNSYAMDYWGQGTSVTVSSASTKGPSVFPLAPCSRSTSESTAALGCLVKDYFPEPVTVSWNSGALTSGVHTFPAVLQSSGLYSLSSVVTVPSSNFGTQTYTCNVDHKPSNTKVDKTVERKCCVECPPCPAPPVAGPSVFLFPPKPKDTLMISRTPEVTCVVVDVSHEDPEVQFNWYVDGVEVHNAKTKPREEQFNSTFRVVSVLTVVHQDWLNGKEYKCKVSNKGLPAPIEKTISKTKGQPREPQVYTLPPSREKMTKNQVSLTCLVKGFYPSDIAVEWESNGQPENNYKTTPPMLKSDGSFFLYSKLTVDKSRWQQGNVFSCSVMHEALHNHYTQKSLSLSPGK
heavy 2: QVQLVQSGAEVKKPGASVKISCKASGYSFTAYYIHWVKQAPGQGLEWIGYISSYNGATNYNQKFKGRVTFTTDTSTSTAYMELRSLRSDDTAVYYCARDYDYDVGMDYWGQGTLVTVSSASTKGPSVFPLAPCSRSTSESTAALGCLVKDYFPEPVTVSWNSGALTSGVHTFPAVLQSSGLYSLSSVVTVPSSNFGTQTYTCNVDHKPSNTKVDKTVERKCCVECPPCPAPPVAGPSVFLFPPKPKDTLMISRTPEVTCVVVDVSHEDPEVQFNWYVDGVEVHNAKTKPREEQFNSTFRVVSVLTVVHQDWLNGKEYKCKVSNKGLPAPIEKTISKTKGQPREPQVYTLPPSREEMTKNQVSLTCLVEGFYPSDIAVEWESNGQPENNYKTTPPMLDSDGSFFLYSELTVDKSRWQQGNVFSCSVMHEALHNHYTQKSLSLSPGK
light: DIVMTQSPDSLAVSLGERATISCRASESVDNYGISFMKWFQQKPGQPPKLLIYAASNQGSGVPDRFSGSGSGTDFTLTISSLQAEDVAVYYCQQSKEVPWTFGGGTKVEIKRTVAAPSVFIFPPSDEQLKSGTASVVCLLNNFYPREAKVQWKVDNALQSGNSQESVTEQDSKDSTYSLSSTLTLSKADYEKHKVYACEVTHQGLSSPVTKSFNRGEC
notes: also called 219R0202_21M18 MBSP
B4: Homo 13A (219R02) (antibody, human IgG2, kappa, V domains shown)
VH: QVQLKQSGAELVKPGASVKLSCKASGYTFTNYWMHWVKLRPGQGFEWIGDINPSNGGTSYNEKFKRKATLTVDKSSSTAYMQLSSLTSEDSAVYYCTIHYYDNSYAMDYWGQGTSVTVSS
VL: DIVMTQSPDSLAVSLGERATISCRASESVDNYGISFMKWFQQKPGQPPKLLIYAASNQGSGVPDRFSGSGSGTDFTLTISSLQAEDVAVYYCQQSKEVPWTFGGGTKVEIKR
notes: also called 219R02 13A Homo; 219R0202 HC (with 13A mutation) expressed only with 21M18 LC
B5: 219R0302 IgG (anti-VEGF antibody reformatted to IgG2) (antibody, V domains shown)
VH: B4 VH
VL: DIQMTQSPSSLSASVGDRVTITCQASQDISNYVNWYQQKPGKAPKLLIYDASNLQTGVPSRFSGRGSGTHFTFTISSLQPEDLATYYCQQYDDLPPTFGRGTKLEIKR
notes: Mouse VH from immunised mice paired with a human kappa light chain from a phagemid library; also called 21R0302
B6: 219R0202 IgG (anti-VEGF antibody reformatted to IgG2) (antibody, V domains shown)
VH: B4 VH
VL: DIQLTQSPSSLSASVGDRVTITCRASQGINNHLAWYQQKPGKVPKSLIYAASNLHSGVPSKFSGSGSGTHFTLIISSLQPEDIATYYCQQYDNLPLTFGGGTKVEIKR
notes: Light chain variant of 219R0302 with the same heavy chain

Key:
[1] = molecular target: T2, full length human DLL4 on transfected human 293 HEK cells (human, UniProt Q9NR61 27-685); test: flow cytometry on HEK 293 cells transfected with human DLL4; reference 21M18
T2 construct: whole, on cells; also called hDLL4 transfected cells; human DLL4 transfected cells
Method: Briefly, Human 293 HEK cells were transfected using Fugene 6 transfection reagent as recommended by the manufacturer (Roche Inc.). Cells were transfected with cDNA expression vector encoding full length human DLL4, as well as a second vector encoding green fluorescent protein, pcDNA-GFP, to mark the transiently transfected cells. […] Cells were then rinsed twice with Staining Medium (HBSS with 2% FCS) and incubated with fluorescent secondary antibody, goat-anti-human IgG H/L-phycoerythrin (PE), at 1:200 dilution in PBS for 1 hour. Cells were then analyzed by flow cytometry using a FACS Caliber instrument (BD Bioscience). Specific SBGSP binding was assessed by determining the presence of cells positive for GFP signal and PE signal.

human VEGF [2] = molecular target: T3, human VEGF (human, UniProt P15692-4 27-191); test: SPR (Biacore), VEGF surface
T3 construct: Immobilised on a CM5 chip for Biacore; the same name is used for the rhVEGF of the HUVEC assay; also called hVEGF; rhVEGF

[3] = molecular target: T2, full length human DLL4 on transfected …; test: flow cytometry on human 293 HEK cells transfected with full length human DLL4 and GFP; goat anti-human IgG H/L-PE; MFI against log(nM), non-linear fit
human VEGF [4] = molecular target: T3, human VEGF; test: SPR (Biacore), VEGF surface; reference 219R0202 IgG
human VEGF [5] = molecular target: T3, human VEGF; test: SPR (Biacore), VEGF surface; reference 219R0302 IgG
Target sequence in this assay (P15692 other isoform, or with tags, fused parts or gaps limits assumed): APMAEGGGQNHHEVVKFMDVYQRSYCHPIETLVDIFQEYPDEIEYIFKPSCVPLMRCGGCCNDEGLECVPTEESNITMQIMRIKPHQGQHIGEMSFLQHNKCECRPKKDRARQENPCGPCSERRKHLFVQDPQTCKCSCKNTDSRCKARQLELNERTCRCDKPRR

[6] = molecular target: T2, full length human DLL4 on transfected …; test: flow cytometry on human 293 HEK cells transfected with full length human DLL4 and GFP; goat anti-human IgG H/L-PE
human VEGF [7] = molecular target: T3, human VEGF; test: Biacore dual targeting assay, high density VEGF surface, antibody first, then DLL4-Fc
Target sequence in this assay (P15692 other isoform, or with tags, fused parts or gaps limits assumed): as above

mouse VEGF = molecular target: T1, mouse VEGF; test: SPR (Biacore 2000), recombinant VEGF immobilised on CM5, IgG injected
Method: (§1) IgG affinities were determined using a Biacore 2000 instrument. Briefly, recombinant proteins were immobilized on a CM5 chip using standard amine based chemistry (NHS/EDC). For each Fab and IgG, different concentrations (100-1 nM) were injected over the surface and kinetic data were collected over time. The data was fit using the simultaneous global fit equation to yield affinity constants (KD) for each Fab and IgG.

human VEGF [8] = molecular target: T3, human VEGF; test: as above
Method: as §1

Binder	fold loss in DLL4 binding activity compared to 21M18 [1]	Kd (human VEGF [2])	EC50 [3]	fold weaker binding affinity than 219R0202 (human VEGF [4])	Kd (mouse VEGF)	Kd (human VEGF [8])	other results
B1	~5 fold	6.9 nM	10.2 nM	~5 fold			
B2		7.6 nM					fold weaker binding affinity than 219R0302 (human VEGF [5]): ~4 fold
B3	~3 fold	21 nM	6.2 nM	~14 fold			
B4							binding result [6]: no binding (tested: log(nM) about 1.8 (about 60 nM)); binding result (human VEGF [7]): binds
B5		2.1 nM			21 nM	2.1 nM	
B6		1.5 nM			23 nM	1.5 nM	
